Data: PMC11417369, “DNA sequence and chromatin differentiate sequence-specific transcription factor binding in the human malaria parasite Plasmodium falciparum”

T1: PF3D7_0420300 D1 (Plasmodium falciparum, UniProt Q8I1N6 1956-2015)
T1 sequence: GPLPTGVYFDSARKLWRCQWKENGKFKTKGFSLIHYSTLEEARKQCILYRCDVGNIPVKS

B1: CACACA_negctrl_site1407 (dsDNA)
DNA 1: CACATATACAAAAAGAAATGTTTAGTTGAAAATTAA
DNA 2: TTAATTTTCAACTAAACATTTCTTTTTGTATATGTG
B2: CACACA_negctrl_site1155 (dsDNA)
DNA 1: TAAATGTCTTCAATGAAGTGGAAATGCTGTTATATA
DNA 2: TATATAACAGCATTTCCACTTCATTGAAGACATTTA
B3: CACACA_negctrl_site515 (dsDNA)
DNA 1: GACTCATTAAGGATTATTCCTAATGATCAAAAGAAC
DNA 2: GTTCTTTTGATCATTAGGAATAATCCTTAATGAGTC
B4: CACACA_negctrl_site491 (dsDNA)
DNA 1: ATTTAATATCACAATATATTTTTTACCCTTATCAGC
DNA 2: GCTGATAAGGGTAAAAAATATATTGTGATATTAAAT
B5: CACACA_negctrl_site245 (dsDNA)
DNA 1: TTTTTATTTTATAATATATTCCTTTTCCTTTCTTTC
DNA 2: GAAAGAAAGGAAAAGGAATATATTATAAAATAAAAA
B6: CACACA_negctrl_site1311 (dsDNA)
DNA 1: TTACATTTTTGAAATAGATACATACACGTGTATGTA
DNA 2: TACATACACGTGTATGTATCTATTTCAAAAATGTAA
B7: CACACA_negctrl_site1558 (dsDNA)
DNA 1: TCTTAAATATATAAATTGAAAAATATAAAAGTAATA
DNA 2: TATTACTTTTATATTTTTCAATTTATATATTTAAGA
B8: CACACA_negctrl_site583 (dsDNA)
DNA 1: AAAAAAAAAAAAAAAAAAAAAAAAATATATAATTTA
DNA 2: TAAATTATATATTTTTTTTTTTTTTTTTTTTTTTTT
B9: CACACA_site6208 (dsDNA)
DNA 1: ATATAAATATGACACACACACAAAAAAAATAAAGAC
DNA 2: GTCTTTATTTTTTTTGTGTGTGTGTCATATTTATAT
B10: CACACA_site117 (dsDNA)
DNA 1: ATATATATAAAACACACACACAAAAAAAATAAAGAC
DNA 2: GTCTTTATTTTTTTTGTGTGTGTGTTTTATATATAT
B11: CACACA_negctrl_site793 (dsDNA)
DNA 1: TCCTATAATTTTTTAATCAAAATATTTTATCCTTTG
DNA 2: CAAAGGATAAAATATTTTGATTAAAAAATTATAGGA
B12: CACACA_negctrl_site460 (dsDNA)
DNA 1: ATAATGTATTTATATATATATATATATTTTAATAAA
DNA 2: TTTATTAAAATATATATATATATATAAATACATTAT
B13: CACACA_negctrl_site825 (dsDNA)
DNA 1: TAAGTTCACAAAAAAAAAAAAAAATAAAGAAATAAA
DNA 2: TTTATTTCTTTATTTTTTTTTTTTTTTGTGAACTTA
B14: CACACA_negctrl_site173 (dsDNA)
DNA 1: TTTTATATATATATATATATATATATATATGTATAT
DNA 2: ATATACATATATATATATATATATATATATATAAAA
B15: CACACA_negctrl_site1491 (dsDNA)
DNA 1: GTAGCCTTTCTTTATAAAGGCAAACAAACAAAAAAT
DNA 2: ATTTTTTGTTTGTTTGCCTTTATAAAGAAAGGCTAC
B16: CACACA_negctrl_site620 (dsDNA)
DNA 1: TTTTTTTACTTAATAGTTCAACATATATCTCAATGT
DNA 2: ACATTGAGATATATGTTGAACTATTAAGTAAAAAAA
B17: CACACA_negctrl_site730 (dsDNA)
DNA 1: AGATGATATATTATATATCCTTTTAATAAATGTAAT
DNA 2: ATTACATTTATTAAAAGGATATATAATATATCATCT
B18: CACACA_negctrl_site1083 (dsDNA)
DNA 1: ATGAAAAAAAAAAAAAAAAAAAAAAAAAAAAAAATA
DNA 2: TATTTTTTTTTTTTTTTTTTTTTTTTTTTTTTTCAT
B19: CACACA_negctrl_site77 (dsDNA)
DNA 1: TCTTTATATCATCTTTCTAAATATATATATATATAA
DNA 2: TTATATATATATATATTTAGAAAGATGATATAAAGA
B20: CACACA_negctrl_site129 (dsDNA)
DNA 1: AAGCATTTTTTTTAAAGCCTGTTCATCATCCTTACC
DNA 2: GGTAAGGATGATGAACAGGCTTTAAAAAAAATGCTT
B21: CACACA_negctrl_site753 (dsDNA)
DNA 1: ATTTTTTTTTAATGCAATATATTTTGAAAATTTTAT
DNA 2: ATAAAATTTTCAAAATATATTGCATTAAAAAAAAAT
B22: CACACA_negctrl_site1423 (dsDNA)
DNA 1: TTTTTATAACTATATTATATAACTTTTGTACGAACT
DNA 2: AGTTCGTACAAAAGTTATATAATATAGTTATAAAAA
B23: CACACA_negctrl_site116 (dsDNA)
DNA 1: ATTGGAAAATATGTTATATATATATATATATATATG
DNA 2: CATATATATATATATATATATAACATATTTTCCAAT
B24: CACACA_negctrl_site1603 (dsDNA)
DNA 1: TGATTTATCTATATTTTATAAGTTATTTATTTTTTT
DNA 2: AAAAAAATAAATAACTTATAAAATATAGATAAATCA
B25: CACACA_negctrl_site1015 (dsDNA)
DNA 1: TATAAATAAAGACTTTTTTCTAACTTTTTTTTGTAT
DNA 2: ATACAAAAAAAAGTTAGAAAAAAGTCTTTATTTATA
B26: CACACA_negctrl_site786 (dsDNA)
DNA 1: AATAATAAATATATATATATATATATATATATATTT
DNA 2: AAATATATATATATATATATATATATATTTATTATT
B27: CACACA_negctrl_site1391 (dsDNA)
DNA 1: ATTTTTTTTTTTTTTTTTTTTTTTTTTTGATTTGTG
DNA 2: CACAAATCAAAAAAAAAAAAAAAAAAAAAAAAAAAT
B28: CACACA_negctrl_site1574 (dsDNA)
DNA 1: TTTTTTAAAAGAAAATAAAAAATAAGCATAATATGA
DNA 2: TCATATTATGCTTATTTTTTATTTTCTTTTAAAAAA
B29: CACACA_negctrl_site62 (dsDNA)
DNA 1: TATATGTTAATTTTTTTTTTTTTTTTTTTTTTTATA
DNA 2: TATAAAAAAAAAAAAAAAAAAAAAAATTAACATATA
B30: CACACA_negctrl_site1620 (dsDNA)
DNA 1: ATCTAAATAATATATATATATAATATTAATAATATA
DNA 2: TATATTATTAATATTATATATATATATTATTTAGAT
B31: CACACA_negctrl_site1084 (dsDNA)
DNA 1: TTTTATTGATTATTCATAAATATGCTATTCATCTAA
DNA 2: TTAGATGAATAGCATATTTATGAATAATCAATAAAA
B32: CACACA_negctrl_site637 (dsDNA)
DNA 1: GTGTAAAGGTATTATTGTATTATTCAAAATAAAAAA
DNA 2: TTTTTTATTTTGAATAATACAATAATACCTTTACAC
B33: CACACA_negctrl_site1765 (dsDNA)
DNA 1: TACTTTATATTATATATATATATATATATATATATA
DNA 2: TATATATATATATATATATATATATAATATAAAGTA
B34: CACACA_negctrl_site329 (dsDNA)
DNA 1: TTTAATTTATATAATGATATTAAGTTGGTTATTAGG
DNA 2: CCTAATAACCAACTTAATATCATTATATAAATTAAA
B35: CACACA_negctrl_site979 (dsDNA)
DNA 1: ATGTAATTCTTTTACTTTTTTTTTTTTTTTTTTTTT
DNA 2: AAAAAAAAAAAAAAAAAAAAAGTAAAAGAATTACAT
B36: CACACA_negctrl_site905 (dsDNA)
DNA 1: TATAATAATAATAATAATAATAATAATAATAATAAT
DNA 2: ATTATTATTATTATTATTATTATTATTATTATTATA
B37: CACACA_site8094 (dsDNA)
DNA 1: AAAAAAATTTGGCATACACACACACCCCCACCCACA
DNA 2: TGTGGGTGGGGGTGTGTGTGTATGCCAAATTTTTTT
B38: CACACA_negctrl_site1408 (dsDNA)
DNA 1: ATTTATTTTAATTTTTTTTTTTCTCTTTTGGATCTA
DNA 2: TAGATCCAAAAGAGAAAAAAAAAAATTAAAATAAAT
B39: CACACA_negctrl_site674 (dsDNA)
DNA 1: TAAAATGATAAATGAATGTGATCATTTTATAAAATA
DNA 2: TATTTTATAAAATGATCACATTCATTTATCATTTTA
B40: CACACA_negctrl_site237 (dsDNA)
DNA 1: ATTCTATTTTTTATAAAACCATGTCATCAACATAGG
DNA 2: CCTATGTTGATGACATGGTTTTATAAAAAATAGAAT
B41: CACACA_negctrl_site1645 (dsDNA)
DNA 1: TATTTTAGAGAAAAAAATAAATTACAAAATGTTAGG
DNA 2: CCTAACATTTTGTAATTTATTTTTTTCTCTAAAATA
B42: CACACA_negctrl_site214 (dsDNA)
DNA 1: TTTTTATTTTTATACATATAATATATTATGATTAAA
DNA 2: TTTAATCATAATATATTATATGTATAAAAATAAAAA
B43: CACACA_negctrl_site1241 (dsDNA)
DNA 1: ATTTTTTTTTTTTTTTTTTTTTTGTTTATACAAAAT
DNA 2: ATTTTGTATAAACAAAAAAAAAAAAAAAAAAAAAAT
B44: CACACA_negctrl_site810 (dsDNA)
DNA 1: AGAAAGGAGGAAATAAAAGGACTTCTTTTTTTATAT
DNA 2: ATATAAAAAAAGAAGTCCTTTTATTTCCTCCTTTCT

Target: T1, PF3D7_0420300 D1
Test: gcPBM; about 25 ug protein; PBS, 1% milk, 0.2 mg/ml BSA, salmon testes DNA, 0.03% Triton X-100
Settings: tags: N-terminal GST (pGEX-4T-1), kept; label: surface-attached array probe

| Binder | binding signal |
| --- | --- |
| B1 | 9.06 ln median PBM intensity, better of two orientations |
| B2 | 8.99 ln median PBM intensity, better of two orientations |
| B3 | 9 ln median PBM intensity, better of two orientations |
| B4 | 9.04 ln median PBM intensity, better of two orientations |
| B5 | 8.97 ln median PBM intensity, better of two orientations |
| B6 | 9.01 ln median PBM intensity, better of two orientations |
| B7 | 9.06 ln median PBM intensity, better of two orientations |
| B8 | 9.05 ln median PBM intensity, better of two orientations |
| B9 | 10.6 ln median PBM intensity, better of two orientations |
| B10 | 10.6 ln median PBM intensity, better of two orientations |
| B11 | 9.02 ln median PBM intensity, better of two orientations |
| B12 | 8.96 ln median PBM intensity, better of two orientations |
| B13 | 8.98 ln median PBM intensity, better of two orientations |
| B14 | 9.03 ln median PBM intensity, better of two orientations |
| B15 | 9.04 ln median PBM intensity, better of two orientations |
| B16 | 9.02 ln median PBM intensity, better of two orientations |
| B17 | 9.03 ln median PBM intensity, better of two orientations |
| B18 | 9.02 ln median PBM intensity, better of two orientations |
| B19 | 9.07 ln median PBM intensity, better of two orientations |
| B20 | 9.02 ln median PBM intensity, better of two orientations |
| B21 | 8.96 ln median PBM intensity, better of two orientations |
| B22 | 9.01 ln median PBM intensity, better of two orientations |

| Binder | binding signal |
| --- | --- |
| B23 | 9.05 ln median PBM intensity, better of two orientations |
| B24 | 9.05 ln median PBM intensity, better of two orientations |
| B25 | 9.06 ln median PBM intensity, better of two orientations |
| B26 | 9 ln median PBM intensity, better of two orientations |
| B27 | 8.99 ln median PBM intensity, better of two orientations |
| B28 | 8.99 ln median PBM intensity, better of two orientations |
| B29 | 8.98 ln median PBM intensity, better of two orientations |
| B30 | 8.99 ln median PBM intensity, better of two orientations |
| B31 | 9.01 ln median PBM intensity, better of two orientations |
| B32 | 9.07 ln median PBM intensity, better of two orientations |
| B33 | 9 ln median PBM intensity, better of two orientations |
| B34 | 9 ln median PBM intensity, better of two orientations |
| B35 | 8.97 ln median PBM intensity, better of two orientations |
| B36 | 9.03 ln median PBM intensity, better of two orientations |
| B37 | 10.6 ln median PBM intensity, better of two orientations |
| B38 | 9.07 ln median PBM intensity, better of two orientations |
| B39 | 9.01 ln median PBM intensity, better of two orientations |
| B40 | 8.99 ln median PBM intensity, better of two orientations |
| B41 | 8.98 ln median PBM intensity, better of two orientations |
| B42 | 8.98 ln median PBM intensity, better of two orientations |
| B43 | 9.04 ln median PBM intensity, better of two orientations |
| B44 | 8.99 ln median PBM intensity, better of two orientations |
